Kd and stoichiometry N data for three substances are collected here from publication PMC4695161.

Test [1] deals with ornithine decarboxylase (Homo sapiens) (UniProt P11926). The test is described as follows: analytical ultracentrifugation. The conditions noted are these: cited from earlier work.
Test [2] has as its target antizyme inhibitor (Homo sapiens) (UniProt O14977). The test is described as follows: analytical ultracentrifugation. The conditions noted are these: cited from earlier work.
Test [3] addresses C-terminal AZ peptide AZ(100-228) (human) (UniProt P54368). The test is described as follows: AUC; sedimentation velocity; AZ or AZ peptide at a fixed concentration, three concentrations of CCND1; 30 mM Tris-HCl pH 7.4, 50 mM NaCl; global fit (SEDPHAT) to A+B↔AB hetero-association.
Test [4] deals with human cyclin D1 (CCND1) (human) (UniProt P24385). The test is described as follows: AUC; sedimentation velocity of CCND1 alone at 0.05, 0.1 and 0.3 mg/ml, 30 mM Tris-HCl pH 7.4, 20°C; global fit (SEDPHAT) to monomer-dimer equilibrium; dimer to monomers.

Sequence of human cyclin D1 (CCND1) (P24385 whole entry): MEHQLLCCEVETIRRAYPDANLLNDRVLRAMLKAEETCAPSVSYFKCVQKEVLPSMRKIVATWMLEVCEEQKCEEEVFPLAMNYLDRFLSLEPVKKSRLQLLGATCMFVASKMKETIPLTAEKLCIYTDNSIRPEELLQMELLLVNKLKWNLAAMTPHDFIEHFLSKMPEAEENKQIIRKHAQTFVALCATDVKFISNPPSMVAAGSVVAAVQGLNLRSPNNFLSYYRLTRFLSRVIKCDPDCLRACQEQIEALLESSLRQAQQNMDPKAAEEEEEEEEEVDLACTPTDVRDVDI
Sequence of antizyme (P54368 whole entry): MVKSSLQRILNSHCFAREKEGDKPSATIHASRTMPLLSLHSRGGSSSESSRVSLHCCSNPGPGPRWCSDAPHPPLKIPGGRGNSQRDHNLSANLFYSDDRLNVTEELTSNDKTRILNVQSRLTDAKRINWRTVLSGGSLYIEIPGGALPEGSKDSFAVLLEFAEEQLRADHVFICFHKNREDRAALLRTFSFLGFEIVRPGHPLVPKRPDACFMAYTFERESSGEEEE
Sequence of C-terminal AZ peptide AZ(100-228) (human) (P54368 100-228): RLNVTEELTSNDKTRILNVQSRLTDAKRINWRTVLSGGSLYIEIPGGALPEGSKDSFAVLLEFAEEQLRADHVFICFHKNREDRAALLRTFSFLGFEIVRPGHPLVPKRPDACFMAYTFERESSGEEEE
Sequence of ornithine decarboxylase (Homo sapiens) (P11926 whole entry): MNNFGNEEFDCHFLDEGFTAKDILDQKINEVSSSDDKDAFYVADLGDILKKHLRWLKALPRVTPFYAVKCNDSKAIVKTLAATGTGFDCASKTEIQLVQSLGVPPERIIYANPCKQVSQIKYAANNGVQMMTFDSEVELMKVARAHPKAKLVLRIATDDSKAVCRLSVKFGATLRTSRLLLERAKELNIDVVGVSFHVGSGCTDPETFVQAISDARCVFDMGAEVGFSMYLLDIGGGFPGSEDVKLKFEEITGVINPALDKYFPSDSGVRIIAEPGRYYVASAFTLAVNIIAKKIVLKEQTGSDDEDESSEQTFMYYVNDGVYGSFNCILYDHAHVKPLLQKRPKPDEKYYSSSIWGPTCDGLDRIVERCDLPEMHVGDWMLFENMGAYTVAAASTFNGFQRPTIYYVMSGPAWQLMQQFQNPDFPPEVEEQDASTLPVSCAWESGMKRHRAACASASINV
Sequence of antizyme inhibitor (Homo sapiens) (O14977 whole entry): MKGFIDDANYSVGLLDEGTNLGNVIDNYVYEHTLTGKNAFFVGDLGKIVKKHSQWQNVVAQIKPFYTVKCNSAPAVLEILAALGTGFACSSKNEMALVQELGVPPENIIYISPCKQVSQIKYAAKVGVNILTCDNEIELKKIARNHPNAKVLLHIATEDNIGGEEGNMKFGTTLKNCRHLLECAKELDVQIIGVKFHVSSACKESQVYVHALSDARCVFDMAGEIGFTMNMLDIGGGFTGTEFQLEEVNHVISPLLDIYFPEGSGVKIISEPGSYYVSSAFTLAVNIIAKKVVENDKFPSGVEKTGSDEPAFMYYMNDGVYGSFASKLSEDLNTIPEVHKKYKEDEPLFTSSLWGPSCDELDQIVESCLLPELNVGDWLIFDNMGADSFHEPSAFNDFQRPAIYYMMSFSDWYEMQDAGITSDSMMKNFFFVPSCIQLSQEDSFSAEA

Take antizyme (from UniProt P54368): the Kd in test [1] was 0.21 µM; in test [2] it was 0.02 µM.

“human cyclin D1 (CCND1) (from UniProt P24385 1-295) (natural protein)”: in test [3], the equilibrium dissociation constant (Kd) amounted to 14.1 µM.

In test [4], “human cyclin D1 (CCND1) (from UniProt P24385 1-295) (natural protein; other documents disagree on this pair)” registered a Kd of 3.84 µM and a stoichiometry N of 2.
